Source: paper PMC11784651
pKd: −log10 of the molar value.

Legend:
[1] = target: Biotinylated human CD38-Avi-His (human); test: SPR
[2] = target: Biotinylated human CD38-Avi-His (Acrobiosystems, catalog NO: CD8-H82E7) (human); test: SPR
[3] = target: CD38 (soluble, in the SEC-MALS and electron microscopy of the ISB 1442/CD38 complex) (human); test: SEC-MALS
[4] = target: ISB 1442, CD47 x CD38 bispecific biparatopic antibody (2 + 1 BEAT format) (human); test: flow cytometry on cells

## ISB 1442 (bispecific antibody)
[1]
  pKd: > 11.00

## ISB 1442, CD47 x CD38 bispecific biparatopic antibody (2 + 1 BEAT format) (bispecific antibody)
[2]
  fold slower dissociation at 300 RU than at 10 RU CD38 surface density: 5.8 fold
[3]
  stoichiometry N (ISB 1442 per CD38 (2:2 complex)): 1

## soluble CD38 (sCD38) (domain or fragment)
[4]
  molar ratio CD38/antibody at IC50 (mol CD38 per mol antibody): 2.32
